Results from patent publication US20240261333A1 (published 2024).

Tests used:
Test in all cases: co-IP, anti-FLAG, lysate of cells with N-FLAG B3GNT2; mass spectrometry
RPL10 = RPL10 (human, UniProt P27635 2-214)
Protocol: (§1) Cells were plated in 10-cm cell culture dishes and grown to 60-80% confluency. For each condition, two biological replicates were harvested for co-IP. Cells were washed with PBS and 4 mL of lysis buffer (20 mM HEPES, 1% Triton X-100, 150 mM NaCl, 1 mM EDTA, and 10% glycerol) containing protease inhibitor cocktail was added. Cells were scraped and lysate was incubated at 4° C. under rotary agitation for 1 h. Lysate was centrifuged at 14,000×g for 10 min at 4° C. Supernatant was transferred to a new tube and an aliquot was taken as the input. […] For Western blots, 10 μg/mL Chicken Anti-FLAG (Aves labs ET-DY100) and IgY control (R&D Systems AB-101-C) antibodies were biotinylated (Thermo Fisher Scientific 90407) and added to the respective conditions. Lysates with antibodies were incubated at 4° C. under rotary agitation overnight. For each mL of lysate, 50 μL of Pierce Protein A/G Magnetic Beads (Mass spectrometry; Thermo Fisher Scientific 88803) or Pierce Streptavidin Magnetic Beads (Western blot; Thermo Fisher Scientific 88817) was washed twice with lysis buffer. Lysates with antibodies were added to the beads and incubated at 4° C. under rotary agitation for 4 h. Beads were washed with lysis buffer 3 times and resuspended in lysis buffer for storage.
(§2) Magnetic beads were resuspended in 100 mM Tris pH 7.8, reduced, alkylated and digested with trypsin at 37° ° C. overnight. This solution was subjected to solid phase extraction to concentrate the peptides and remove unwanted reagents followed by injection onto a Shimadzu HPLC with fraction collector. Eight fractions were collected and after concentration were injected on a Waters NanoAcquity HPLC equipped with a self-packed Aeris 3 μm C18 analytical column 0.075 mm by 20 cm, (Phenomenex). Peptides were eluted using standard reverse-phase gradients. The effluent from the column was analyzed using a Thermo Orbitrap Elite mass spectrometer (nanospray configuration) operated in a data dependent manner for 54 minutes. The resulting fragmentation spectra were correlated against the known database using Proteome Discover 1.4 (Thermo Fisher Scientific).

LMNA = biological target: T1, LMNA (human, UniProt P02545 1-646, limits assumed)
T1 construct: also called NP_733821.1
T1 sequence (looked up): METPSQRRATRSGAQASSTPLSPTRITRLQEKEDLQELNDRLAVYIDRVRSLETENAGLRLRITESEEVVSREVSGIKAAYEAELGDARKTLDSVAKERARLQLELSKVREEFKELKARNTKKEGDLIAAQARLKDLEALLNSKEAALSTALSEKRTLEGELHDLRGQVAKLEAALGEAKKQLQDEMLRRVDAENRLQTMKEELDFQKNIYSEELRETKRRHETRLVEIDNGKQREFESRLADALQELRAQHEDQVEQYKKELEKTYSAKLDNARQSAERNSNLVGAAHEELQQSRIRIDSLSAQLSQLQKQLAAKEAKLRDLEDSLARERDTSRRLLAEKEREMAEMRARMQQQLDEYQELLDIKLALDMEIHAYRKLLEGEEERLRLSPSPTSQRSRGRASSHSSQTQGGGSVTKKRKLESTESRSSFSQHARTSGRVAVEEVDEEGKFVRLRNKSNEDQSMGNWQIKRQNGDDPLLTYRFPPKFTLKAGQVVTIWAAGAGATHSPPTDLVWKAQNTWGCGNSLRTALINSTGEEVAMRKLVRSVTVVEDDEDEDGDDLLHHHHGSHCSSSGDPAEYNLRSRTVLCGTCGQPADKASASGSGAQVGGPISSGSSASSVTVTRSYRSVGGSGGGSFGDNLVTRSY
Protocol: as §1, §2

FUBP3 = biological target: T2, FUBP3 (human, UniProt Q96I24 2-572)
T2 construct: also called NP_003925.1 (+2)
T2 sequence (looked up): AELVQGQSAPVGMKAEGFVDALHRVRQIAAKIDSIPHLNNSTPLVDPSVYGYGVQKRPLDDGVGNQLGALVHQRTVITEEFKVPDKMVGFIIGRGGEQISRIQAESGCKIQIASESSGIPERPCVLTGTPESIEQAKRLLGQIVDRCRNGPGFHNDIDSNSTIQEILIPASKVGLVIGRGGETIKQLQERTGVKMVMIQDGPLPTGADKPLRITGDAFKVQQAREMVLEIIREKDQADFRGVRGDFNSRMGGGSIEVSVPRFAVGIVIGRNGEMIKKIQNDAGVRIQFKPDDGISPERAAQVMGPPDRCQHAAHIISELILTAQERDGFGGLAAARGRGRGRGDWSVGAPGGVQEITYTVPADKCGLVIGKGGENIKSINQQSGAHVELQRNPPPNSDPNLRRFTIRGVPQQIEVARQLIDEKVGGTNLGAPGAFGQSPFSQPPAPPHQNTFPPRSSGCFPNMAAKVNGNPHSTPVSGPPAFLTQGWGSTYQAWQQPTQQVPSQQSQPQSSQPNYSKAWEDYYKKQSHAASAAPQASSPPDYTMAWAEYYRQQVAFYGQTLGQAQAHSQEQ
Protocol: as §1, §2

SERBP1 = biological target: T3, SERBP1 (human, UniProt Q8NC51 2-408)
T3 construct: also called NP_001018077.1 (+1)
T3 sequence (looked up): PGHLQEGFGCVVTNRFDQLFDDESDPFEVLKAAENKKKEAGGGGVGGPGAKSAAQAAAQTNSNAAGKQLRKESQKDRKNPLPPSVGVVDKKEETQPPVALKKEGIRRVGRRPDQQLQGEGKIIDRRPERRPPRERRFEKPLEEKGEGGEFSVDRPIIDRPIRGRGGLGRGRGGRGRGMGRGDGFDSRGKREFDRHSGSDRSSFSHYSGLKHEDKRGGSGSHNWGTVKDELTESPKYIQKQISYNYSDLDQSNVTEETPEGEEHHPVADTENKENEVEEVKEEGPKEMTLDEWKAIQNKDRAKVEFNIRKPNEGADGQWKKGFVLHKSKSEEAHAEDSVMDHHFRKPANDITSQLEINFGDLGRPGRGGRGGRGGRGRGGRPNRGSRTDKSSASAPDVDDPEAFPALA
Protocol: as §1, §2

RPL4 = RPL4 (human, UniProt P36578 2-427)
Protocol: as §1, §2

- co-IP mass spectrometry count (RPL10): 4
- co-IP mass spectrometry count (LMNA): 11
- co-IP mass spectrometry count (FUBP3): 8
- co-IP mass spectrometry count (SERBP1): 0
- co-IP mass spectrometry count (RPL4): 15
B1: N-terminal FLAG tagged B3GNT2 (enzyme, human, UniProt Q9NY97 1-397, looked up)
chain: MSVGRRRIKLLGILMMANVFIYFIMEVSKSSSQEKNGKGEVIIPKEKFWKISTPPEAYWNREQEKLNRQYNPILSMLTNQTGEAGRLSNISHLNYCEPDLRVTSVVTGFNNLPDRFKDFLLYLRCRNYSLLIDQPDKCAKKPFLLLAIKSLTPHFARRQAIRESWGQESNAGNQTVVRVFLLGQTPPEDNHPDLSDMLKFESEKHQDILMWNYRDTFFNLSLKEVLFLRWVSTSCPDTEFVFKGDDDVFVNTHHILNYLNSLSKTKAKDLFIGDVIHNAGPHRDKKLKYYIPEVVYSGLYPPYAGGGGFLYSGHLALRLYHITDQVHLYPIDDVYTGMCLQKLGLVPEKHKGFRTFDIEEKNKNNICSYVDLMLVHSRKPQEMIDIWSQLQSAHLKC
notes: Overexpressed in cells and pulled down from the lysate with mouse anti-FLAG antibody; also called N-FLAG B3GNT2; N-term FLAG; not shown: N-terminal FLAG tag
